Data from PMC3683068.
Where two headings read alike, the source gives them in different places.

Key:
Test in all cases: two-hybrid; mammalian two-hybrid in HEK-293 cells; GAL4-ASK1 fragments in pBIND, VP16-Nef in pACT, pG5luc reporter; firefly luciferase/Renilla 48 hrs after transfection, fold over the pACT-pBIND negative control
[1] = molecular target: ASK1 (1-1051 aa), GAL4 fusion (UniProt Q99683)
[2] = molecular target: ASK1 (1-904 aa), GAL4 fusion (UniProt Q99683)
[3] = molecular target: ASK1 (319-1051 aa), GAL4 fusion (UniProt Q99683)
[4] = molecular target: ASK1 (1-1051 aa), GAL4 fusion (UniProt Q99683); remark: listed apart in the source
[5] = molecular target: ASK1 (1-904 aa), GAL4 fusion (UniProt Q99683); remark: listed apart in the source
[6] = molecular target: ASK1 (1-1051 aa), GAL4 fusion (UniProt Q99683); remark: listed apart in the source
[7] = molecular target: ASK1 (861-1051 aa), GAL4 fusion (UniProt Q99683)
[8] = molecular target: ASK1 (1-345 aa), GAL4 fusion (UniProt Q99683)
[9] = molecular target: ASK1 (1-1051 aa), GAL4 fusion (UniProt Q99683); remark: listed apart in the source

HIV-1 Nef core domain (57-207 aa), VP16 fusion (domain or fragment)
fold increase in luciferase/renilla over pACT-pBIND [1]: 153 fold | fold increase in luciferase/renilla over pACT-pBIND [2]: 8.75 fold | fold increase in luciferase/renilla over pACT-pBIND [3]: 2.83 fold | fold increase in luciferase/renilla over pACT-pBIND [4]: 157 fold | fold increase in luciferase/renilla over pACT-pBIND [5]: 9.15 fold | fold increase in luciferase/renilla over pACT-pBIND [6]: 162 fold | fold increase in luciferase/renilla over pACT-pBIND [7]: 2.93 fold | fold increase in luciferase/renilla over pACT-pBIND [8]: 2.05 fold | fold increase in luciferase/renilla over pACT-pBIND [9]: 156 fold

HIV-1 Nef (57-174 aa), VP16 fusion (domain or fragment)
fold increase in luciferase/renilla over pACT-pBIND [1]: 81.7 fold
